Source: paper PMC12319226 (Frontiers in Bioinformatics, 2025)

T1: fHbp m001720 (Neisseria meningitidis, engineered fHbp …, point mutant)
T1 chain: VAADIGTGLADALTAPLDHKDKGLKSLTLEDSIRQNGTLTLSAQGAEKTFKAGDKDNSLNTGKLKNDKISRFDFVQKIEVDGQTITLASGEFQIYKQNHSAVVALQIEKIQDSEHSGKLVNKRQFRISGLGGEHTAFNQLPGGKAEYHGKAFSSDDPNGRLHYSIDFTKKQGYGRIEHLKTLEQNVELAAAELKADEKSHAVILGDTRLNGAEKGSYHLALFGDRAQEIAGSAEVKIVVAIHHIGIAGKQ

T2: fHbp m001659 (Neisseria meningitidis, fHbp …, point mutant)
T2 chain: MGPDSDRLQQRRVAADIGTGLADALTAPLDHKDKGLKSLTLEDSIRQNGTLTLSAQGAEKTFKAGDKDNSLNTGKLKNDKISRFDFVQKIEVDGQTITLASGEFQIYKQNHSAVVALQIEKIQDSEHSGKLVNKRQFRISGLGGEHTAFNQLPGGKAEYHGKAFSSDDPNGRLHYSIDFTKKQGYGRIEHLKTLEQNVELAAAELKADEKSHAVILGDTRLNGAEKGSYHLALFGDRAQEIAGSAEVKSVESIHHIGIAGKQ

T3: fHbp m001847 (Neisseria meningitidis, engineered fHbp …, chimera)
T3 chain: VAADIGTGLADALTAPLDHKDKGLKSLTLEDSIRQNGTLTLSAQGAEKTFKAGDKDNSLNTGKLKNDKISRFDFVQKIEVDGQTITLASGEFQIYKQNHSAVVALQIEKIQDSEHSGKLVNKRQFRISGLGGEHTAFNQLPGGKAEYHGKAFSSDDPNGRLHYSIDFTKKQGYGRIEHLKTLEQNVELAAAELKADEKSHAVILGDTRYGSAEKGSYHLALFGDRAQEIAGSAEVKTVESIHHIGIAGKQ

T4: fHbp m002336 (Neisseria meningitidis fHbp v3.28, …, chimera)
T4 chain: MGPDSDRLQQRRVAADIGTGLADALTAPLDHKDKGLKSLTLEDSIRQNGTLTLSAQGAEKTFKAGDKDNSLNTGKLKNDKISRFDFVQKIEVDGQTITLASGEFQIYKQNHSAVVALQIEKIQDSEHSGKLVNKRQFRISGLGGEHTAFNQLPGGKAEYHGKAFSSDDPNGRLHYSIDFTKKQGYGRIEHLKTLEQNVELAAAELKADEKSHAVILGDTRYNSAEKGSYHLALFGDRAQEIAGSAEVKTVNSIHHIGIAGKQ

T5: fHbp m001040 (Neisseria meningitidis fHbp v3.28-based …, point mutant)
T5 chain: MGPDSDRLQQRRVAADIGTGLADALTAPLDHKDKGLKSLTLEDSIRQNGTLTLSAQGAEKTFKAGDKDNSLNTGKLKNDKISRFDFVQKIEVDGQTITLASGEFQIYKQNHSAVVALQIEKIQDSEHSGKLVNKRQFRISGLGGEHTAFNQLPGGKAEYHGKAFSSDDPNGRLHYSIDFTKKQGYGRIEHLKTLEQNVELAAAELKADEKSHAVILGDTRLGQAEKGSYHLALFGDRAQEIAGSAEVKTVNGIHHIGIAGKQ

T6: fHbp m001768 (Neisseria meningitidis, engineered fHbp …, point mutant)
T6 chain: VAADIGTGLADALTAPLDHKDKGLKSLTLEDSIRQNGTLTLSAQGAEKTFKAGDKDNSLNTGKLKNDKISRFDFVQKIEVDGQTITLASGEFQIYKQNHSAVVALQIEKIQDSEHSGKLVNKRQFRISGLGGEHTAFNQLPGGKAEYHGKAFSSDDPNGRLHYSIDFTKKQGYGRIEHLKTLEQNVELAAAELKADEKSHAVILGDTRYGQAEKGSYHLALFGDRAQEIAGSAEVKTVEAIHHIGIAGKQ

T7: fHbp m002281 (Neisseria meningitidis, engineered fHbp …, chimera)
T7 chain: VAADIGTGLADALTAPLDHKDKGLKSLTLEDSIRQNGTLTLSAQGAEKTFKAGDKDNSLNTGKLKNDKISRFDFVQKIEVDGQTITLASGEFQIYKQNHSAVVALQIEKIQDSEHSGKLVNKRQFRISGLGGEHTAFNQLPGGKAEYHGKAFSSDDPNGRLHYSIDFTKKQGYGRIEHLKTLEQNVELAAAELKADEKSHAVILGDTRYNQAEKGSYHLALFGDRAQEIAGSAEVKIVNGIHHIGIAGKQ

T8: fHbp m001207 (Neisseria meningitidis fHbp v3.28-based …, point mutant)
T8 chain: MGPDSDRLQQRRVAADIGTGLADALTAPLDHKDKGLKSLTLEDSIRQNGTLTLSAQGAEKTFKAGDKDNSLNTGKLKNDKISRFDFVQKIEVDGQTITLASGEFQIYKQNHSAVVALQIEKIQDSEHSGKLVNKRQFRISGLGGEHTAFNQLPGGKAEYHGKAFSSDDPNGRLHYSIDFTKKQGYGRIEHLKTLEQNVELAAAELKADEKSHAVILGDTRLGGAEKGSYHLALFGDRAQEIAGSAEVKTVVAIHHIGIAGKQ

T9: fHbp m001039 (Neisseria meningitidis fHbp v3.28, …, point mutant)
T9 chain: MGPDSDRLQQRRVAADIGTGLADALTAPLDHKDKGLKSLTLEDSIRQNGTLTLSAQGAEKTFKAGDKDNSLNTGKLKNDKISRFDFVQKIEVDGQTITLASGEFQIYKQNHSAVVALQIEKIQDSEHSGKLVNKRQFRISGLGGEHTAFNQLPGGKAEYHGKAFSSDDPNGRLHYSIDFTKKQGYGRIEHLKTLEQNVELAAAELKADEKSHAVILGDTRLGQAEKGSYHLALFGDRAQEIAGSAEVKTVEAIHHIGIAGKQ

B1: chimeric antibody h12C1 (antibody, V domains shown)
VH: QVQLQESGPELVKPGASVKISCKASGYSFSDYNMSWVKQSNGKSLEWIGIIDPKYGTINYNQKFKGKATLTVDQASSTAYMQLNSLTSEDSAVYYCVRDYYGSSYFDYWGQGTTLTVSS
VL: DIVLTQSPSSIYASLGERVTLTCKASQDIHNYLNWFQQKPGKSPKTLIYRANRLVDGVPSRFSGGGSGQDYSLTISSLEFEDIGIYYCLQYDEFPPTFGGGTRLEIK
notes: also called humanized 12C1; source: Expi293, purified (MabSelect SuRe, SEC); copies: 2 + 2
B2: mAb 1E6 (human) (antibody, V domains shown)
VH: EVQLVQSGAEVKKPGSSVKVSCKASGGTVIDYPITWVRQAPGQGLEWVGGFVPLFRTSNYGQKFQGRVTITADKSTSTASMELNSLTSEDTAIYYCARGDTAMGPFDYWGQGTLVTVSS
VL: SYVLTQPPSLSVAPGKTATLTCGGNNIAGKTVHWYQQRPGQAPVLVISYDSDRPSGIPERFSGSNSANTATLTISRVEAGDEADYYCQVWDRNSDHWVFGGGTKLTVL
notes: source: Expi293, purified (MabSelect SuRe, SEC); copies: 2 + 2

Columns and labels:
Experiment in all cases: BLI
Details in all cases: both partners purified
fHbp m001720 = target: T1, fHbp m001720
fHbp m001659 = target: T2, fHbp m001659
fHbp m001847 = target: T3, fHbp m001847
fHbp m002336 = target: T4, fHbp m002336
fHbp m001040 = target: T5, fHbp m001040
fHbp m001768 = target: T6, fHbp m001768
fHbp m002281 = target: T7, fHbp m002281
fHbp m001207 = target: T8, fHbp m001207
fHbp m001039 = target: T9, fHbp m001039

| Binder | Kd (fHbp m001720) [nM] | koff (fHbp m001720) [s⁻¹] | kon (fHbp m001720) [M⁻¹ s⁻¹] | Kd (fHbp m001659) [nM] | koff (fHbp m001659) [s⁻¹] | kon (fHbp m001659) [M⁻¹ s⁻¹] | Kd (fHbp m001847) [nM] | koff (fHbp m001847) [s⁻¹] | kon (fHbp m001847) [M⁻¹ s⁻¹] | Kd (fHbp m002336) [nM] | koff (fHbp m002336) [s⁻¹] | kon (fHbp m002336) [M⁻¹ s⁻¹] | Kd (fHbp m001040) [nM] | koff (fHbp m001040) [s⁻¹] | kon (fHbp m001040) [M⁻¹ s⁻¹] | Kd (fHbp m001768) [nM] | koff (fHbp m001768) [s⁻¹] | kon (fHbp m001768) [M⁻¹ s⁻¹] | Kd (fHbp m002281) [nM] | koff (fHbp m002281) [s⁻¹] | further results |
| --- | --- | --- | --- | --- | --- | --- | --- | --- | --- | --- | --- | --- | --- | --- | --- | --- | --- | --- | --- | --- | --- |
| B1 | 1.04 | 0.000368 | 354900 ± 1290 | 1.75 | 0.000578 | 330000 ± 3440 | 108 | 0.00885 ± 0.000103 | 81800 ± 5640 | 47.1 | 0.01231 ± 0.000116 | 261000 ± 9540 | 0.523 | 0.000192 | 368300 ± 1820 | 5.51 | 0.000453 | 82200 ± 1160 | 34.9 | 0.0105 | kon (fHbp m002281): 300000 ± 6700 M⁻¹ s⁻¹; Kd (fHbp m001207): 80.8 nM; koff (fHbp m001207): 0.014 s⁻¹; kon (fHbp m001207): 174000 ± 4810 M⁻¹ s⁻¹; Kd (fHbp m001039): 65.7 nM; koff (fHbp m001039): 0.0146 s⁻¹; kon (fHbp m001039): 223000 ± 3080 M⁻¹ s⁻¹ |
| B2 | 0.788 | 0.000292 | 370200 ± 1240 | 0.716 | 0.000306 | 427300 ± 1410 | 0.348 | 0.000123 | 353300 ± 2150 | < 0.001 | < 1e-07 | 676300 ± 4120 | 0.594 | 0.000266 | 447100 ± 3340 | 0.538 | 0.000175 | 325000 ± 2320 | 0.217 | 0.0001 | kon (fHbp m002281): 462500 ± 3370 M⁻¹ s⁻¹; Kd (fHbp m001207): 0.336 nM; koff (fHbp m001207): 0.000155 s⁻¹; kon (fHbp m001207): 459700 ± 4080 M⁻¹ s⁻¹; Kd (fHbp m001039): 0.655 nM; koff (fHbp m001039): 0.00031 s⁻¹; kon (fHbp m001039): 473100 ± 1890 M⁻¹ s⁻¹ |
